The values that follow come from patent publication US20020143164A1, “Ras activator nucleic acid molecules, polypeptides and methods of use” (priority 1999, published 2002).

Assay [1] has as its system Ras. In words: In vitro GEF assay (32P-α-GTP binding to Ras). Format: biochemical. The method, then:
Full length (GRF4) or CDC25-deleted (ΔCDC25) GRF4, or GRF2, each Flag-tagged, were immunoprecipitated from transfected Hek-293T cells using anti Flag antibodies. Equal amounts of immunoprecipitates were washed with GEF lysis buffer, equilibrated with GEF assay buffer and incubated with 32P-α-GTP (diluted in cold GTP) plus 100 ng of Ras for 30 min. Bound and unbound radiolabelled GTP were then separated by filtration, and the amount of bound GTP determined by scintillation counting, as detailed in the Method section. Fold Ras activation was compared to the activation of Ras in the absence of GRFs (which was set to 1).
GRF4 has a RasGRF(GEF) activity/function. To show its GEF activity, we performed in-vitro GEF assays. Briefly, GST-Ras was added alone (tubes 1 and 2) or along with GST-CDC25, or immunoprecipitated full-length of GRF4 (tubes 3 and 4). All tubes contained assay mixture including cold GTP and P32 alpha GTP. The exchange reactions were stopped at the indicated times. The stopped reaction mixtures were passed through nitrocellulose filters which were then washed with stop buffer to separate bound and unbound nucleotides. Filters were dried and then quantified by scintillation counting to determine bound CPM. The labeled nucleotides trapped on the washed filters were assumed to be Ras-associated. The difference in bound CPM over 30 minute period was determined for reactions where GST-Ras was added alone (it is the difference in bound CPM between tubes 1 and 2) and where GST-Ras was added with a GEF (it is the difference in bound CPM between tubes 3 and 4).

Assay [2] deals with Ras. Conditions: reference 23; cited from earlier work.
The test system of assay [3] is Ras. Nature of the assay: Ras activation assay in living cells, GRF4 and deletion mutants expressed in HEK-293T cells. Format: cell-based, human. Conditions: HEK-293T cells treated with 8-Br-cAMP. The method, then: HEK-293T cells were transfected with vector alone, GRF4 (WT), GRF4 lacking its cNMP-BD (ΔcNMP-BD) or its CDC25 domain (ΔCDC25), and then treated (or not) with 8-Br-cAMP. Cell lysates were then incubated with GST-Raf1-RBD to precipitate active Ras, and immunobloited with anti Ras antibodies as above (upper panel). Lower panels are controls for total endogenous Ras and transfected GRF4 or its mutants.
Flag, HA or myc tags was added to the N-terminus of full length GRF4 using PCR, and subcloned into the mammalian expression vector pCMV5 (Invitrogen). Mutants GRF4 with deletion of the CDC25 domain (residue 711-1007, GRF4DCDC25 or DCDC25 for short), the cNMP-BD (residue 134-254, DcNMP-BD), the PLPF motif in the PDZ domain (residue 396-399, -PLPF), or bearing mutations in the PDZ-binding motif (SAV to AAA), were generated using PCR. The GST-GRF4-cNMP-BD (residue 101-303) and GST-Carboxy-terminus (residue 1348-1499) were PCR-generated and cloned into pGEX-2T ( Pharmacia). The latter construct was used to generate a fusion protein (GST-GRF4C terminus) which was used to immunize rabbits for the generation of polyclonal anti GRF4 antibodies.
HEK-293T cells were transfected as above, serum starved overnight and then subjected to various treatments, as described in the text. […] GTP in the lysates was determined using activation specific probes as described. Briefly, to determined the levels of active Ras (Ras-GTP) in cell, sepharose-bound GST fusion protein of the Ras-binding domain (RBD) of Raf-1 (GST-Raf1-RBD; Upstate Biotechnology Inc.) was used to precipitate Ras-GTP from cell lysates, and the amount of Ras-GTP determined by immunoblotting with anti Ras antibodies (Quality Biotech). Similarly, to determine the level of Rap1-GTP in cell lysates, sepharose-bound GST fusion proteins of the Rap1-binding domain of RaIGDS (GST-RaIGDS-RBD) were used to precipitate Rap1-GTP, which was then detected on a Western blot using anti-Rap1 antibodies (Transduction Lab).

B1: isolated CDC25 domain of GRF4: Isolated CDC25 catalytic domain of GRF4 (protein)
chain: SLLQLSTVEVATQLSMRNFELFRNIEPTEYIDDLFKLRSKTSCANLKRFEEVINQETFWVASEILRETNQLKRMKIIKHFIKIALHCRECKNFNSMFAIISGLNLAPVARLRTTWEKLPNKYEKLFQDLQDLFDPSRNMAKYRNVLNSQNLQPPIIPLFPVIKKDLTFLHEGNDSKVDGLVNFEKLRMIAKEIRHVGRMASVNMDPALMFRTRKKKWRSLGSLSQGSTNATVLDVAQTGGHKKRVRRSSFLNAKKLYEDAQMARKVKQYLSNLELEMDEESLQTLSLQCEPATNT
In the case of B1, the “In vitro GEF activity on Ras” value in the assay on Ras [1] is “unable to demonstrate significant activation”.

B2: GRF2: Flag-tagged full-length RasGRF2, positive control GEF for Ras (protein, UniProt O14827 1-1237, looked up)
chain: MQKSVRYNEGHALYLAFLARKEGTKRGFLSKKTAEASRWHEKWFALYQNVLFYFEGEQSCRPAGMYLLEGCSCERTPAPPRAGAGQGGVRDALDKQYYFTVLFGHEGQKPLELRCEEEQDGKEWMEAIHQASYADILIEREVLMQKYIHLVQIVETEKIAANQLRHQLEDQDTEIERLKSEIIALNKTKERMRPYQSNQEDEDPDIKKIKKVQSFMRGWLCRRKWKTIVQDYICSPHAESMRKRNQIVFTMVEAESEYVHQLYILVNGFLRPLRMAASSKKPPISHDDVSSIFLNSETIMFLHEIFHQGLKARIANWPTLILADLFDILLPMLNIYQEFVRNHQYSLQVLANCKQNRDFDKLLKQYEANPACEGRMLETFLTYPMFQIPRYIITLHELLAHTPHEHVERKSLEFAKSKLEELSRVMHDEVSDTENIRKNLAIERMIVEGCDILLDTSQTFIRQGSLIQVPSVERGKLSKVRLGSLSLKKEGERQCFLFTKHFLICTRSSGGKLHLLKTGGVLSLIDCTLIEEPDASDDDSKGSGQVFGHLDFKIVVEPPDAAAFTVVLLAPSRQEKAAWMSDISQCVDNIRCNGLMTIVFEENSKVTVPHMIKSDARLHKDDTDICFSKTLNSCKVPQIRYASVERLLERLTDLRFLSIDFLNTFLHTYRIFTTAAVVLGKLSDIYKRPFTSIPVRSLELFFATSQNNRGEHLVDGKSPRLCRKFSSPPPLAVSRTSSPVRARKLSLTSPLNSKIGALDLTTSSSPTTTTQSPAASPPPHTGQIPLDLSRGLSSPEQSPGTVEENVDNPRVDLCNKLKRSIQKAVLESAPADRAGVESSPAADTTELSPCRSPSTPRHLRYRQPGGQTADNAHCSVSPASAFAIATAAAGHGSPPGFNNTERTCDKEFIIRRTATNRVLNVLRHWVSKHAQDFELNNELKMNVLNLLEEVLRDPDLLPQERKAAANILRALSQDDQDDIHLKLEDIIQMTDCMKAECFESLSAMELAEQITLLDHVIFRSIPYEEFLGQGWMKLDKNERTPYIMKTSQHFNDMSNLVASQIMNYADVSSRANAIEKWVAVADICRCLHNYNGVLEITSALNRSAIYRLKKTWAKVSKQTKALMDKLQKTVSSEGRFKNLRETLKNCNPPAVPYLGMYLTDLAFIEEGTPNFTEEGLVNFSKMRMISHIIREIRQFQQTSYRIDHQPKVAQYLLDKDLIIDEDTLYELSLKIEPRLPA
modifications: full-length Flag tag
notes: Flag-tagged full-length RasGRF2, positive control GEF for Ras
Take B2: in the assay with Ras [1] (immunoprecipitated Flag-tagged protein, 100 ng Ras, 30 min), the “Fold Ras activation in vitro (activation without GRFs set to 1)” value turned out to be 4.5 fold. The “Binding to nucleotide-bound forms of Ras, similar experiments” value with Ras [2] is given as “bind only to EDTA-treated Ras”.

B3: ACDC25: Mutant GRF4 with deletion of the CDC25 domain (residue 711-1007) (protein)
chain: MKPLAIPANHGVMGQQEKHSLPADFTKLHLTDSLHPQVTHVSSSHSGCSITSDSGSSSLSDIYQATESEAGDMDLSGLPETAVDSEDDDDEEDIERASDPLMSRDIVRDCLEKDPIDRTDDDIEQLLEFMHQLPAFANMTMSVRRELCAVMVFAVVERAGTIVLNDGEELDSWSVILNGSVEVTYPDGKAEILCMGNSFGVSPTMDKEYMKGVMRTKVDDCQFVCIAQQDYCRILNQVEKNMQKVEEEGEIVMVKEHRELDRTGTRKGHIVIKGTSERLTMHLVEEHSVVDPTFIEDFLLTYRTFLSSPMEVGKKLLEWFNDPSLRDKVTRVVLLWVNNHFNDFEGDPAMTRFLEEFENNLEREKMGGHLRLLNIACAAKAKRRLMTLTKPSREAPLPFILLGGSEKGFGIFVDSVDSGSKATEAGLKRGDQILEVNGQNFENIQLSKAMEILRNNTHLSITVKTNLFVFKELLTRLSEEKRNGAPHLPKIGDIKKASRYSIPDLAVDVEQVIGLEKVNKKSKANTVGGRNKLKKILDKTRISILPQKPYNDIGIGQSQDDSIVGLRQTKHIPTALPVSGTLSSSNPDLLQSHHRILDFSATPDLPDQVLRVFKADQQSRYIMISKDTTAKEVVIQAIREFAVTATPDQYSLCEVSVTPEGVIKQRRLPDQLSKLADRIQLSGRYYLKNNMETETLCSDEDAQELLRESQPKNPGDKKPVKSETSPVAPRAGSQQKAQSLPQPQQQPPPAHKINQGLQVPAVSLYPSRKKVPVKDLPPFGINSPQALKKILSLSEEGSLERHKKQAEDTISNASSQLSSPPTSPQSSPRKGYTLAPSGTVDNFSDSGHSEISSRSSIVSNSSFDSVPVSLHDERRQRHSVSIVETNLGMGRMERRTMIEPDQYSLGSYAPMSEGRGLYATATVISSPSTEELSQDQGDRASLDAADSGRGSWTSCSSGSHDNIQTIQHQRSWETLPFGHTHFDYSGDPAGLWASSSHMDQIMFSDHSTKYNRQNQSRESLEQAQSRASWASSTGYWGEDSEGDTGTIKRRGGKDVSIEAESSSLTSVTTEETKPVPMPAHIAVASSTTKGLIARKEGRYREPPPTPPGYIGIPITDFPEGHSHPARKPPDYNVALQRSRMVARSSDTAGPSSVQQPHGHPTSSRPVNKPQWHKPNESDPRLAPYQSQGFSTEEDEDEQVSAV
For the molecule B3, in the assay on Ras [3], the “8-Br-cAMP-mediated activation of Ras via the construct, compared with wt-GRF4” value was “almost abolished”.
